B1: SLC6A17 (parent)
chain: HMFTPKLDKMLDPQVWREAATQVF
B2: KRT15 (parent)
chain: SNFHINVEESVDGQVVSSHKREI

Variants of: B1
Assay: protein stability index of a GFP-peptide fusion (GPS, HEK-293T) (PSI 1-6); higher = more stable
Details: c terminus: a fixed tail appended
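Further: lentivirally expressed fusions sorted by FACS into six bins by GFP to DsRed ratio, PSI derived from sequencing read proportions per bin multiplied by bin number.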

Protein stability index, by site and new letter:
F24: T 2.38, S 3.39, V 2.69, Y 1.88, R 2.85, Q 2.64

Variants of: B2
Assay: as above
Details: c terminus: native

Protein stability index, by site and new letter:
V15: I 2.11, M 4.02, G 2.67, Q 2.78, N 2.52, T 2.31, L 1.78, A 1.71, Y 2.12, S 3.12, C 1.48, E 2.23, D 2.82, P 2.84, F 1.96, H 1.83
S18: D 3.92, M 1, Q 1.27, P 3.1, K 2.06, C 2.21, Y 3.37, A 1.37, R 3.29, E 3.06, I 2.44, T 1.63, N 2.72, G 1.54
V16: M 2.23, T 2.99, H 1.2, L 2.37, F 2.63, N 2.46, C 2.25, E 2.85, S 2.18, P 2.18, D 2.86, A 2.19, Y 2, Q 2.62, K 2.2, G 2.82
K20: N 5.38, E 1.49, D 3.86, I 2.45, L 1.39, H 2.51, A 3.58, C 2.39, G 3.06, F 2.07, M 3.15, P 1.94
E8: Q 1.59, L 2.02, H 1.78, K 2.28, C 2.07, T 1.34, N 1.9, P 2.47, A 1.57, D 1.8, V 1.32, G 1.42, I 2.73, F 3.87, S 2.03, Y 2.88, R 2.02, W 2.41
V7: S 2.12, C 4, T 3.07, G 3.08, R 2.78, K 2.1, A 2.76, H 2.11, Y 1.36, D 2.01, M 1.14, W 2.64, N 2.1, Q 2.88, L 1.34, P 2.14, E 3.63, I 2.18
N6: H 2.28, E 1.88, C 1.9, D 1.54, M 2.11, T 2.42, Y 1.06, L 2.23, Q 2.27, F 2.11, G 2.24, I 3.69, K 1.78, P 1.9, S 1.63
G13: L 1.78, Y 2.59, A 2.73, C 1.98, K 2.29, D 2.36, N 2.3, R 2.35, S 1.81, F 1.86, Q 1.96, E 1.89, T 2.18, H 1.64, P 2.19, I 2.02, V 1.55
I5: Q 3.1, M 2.59, E 3.97, D 3.64, A 3.14, F 2.22, C 4.36, Y 1.24, G 2.8, N 3.36, W 1.63, H 3.01, T 3.02, L 1.71, V 3.37, P 2.98, K 2.14, S 3.06, R 2.67
V11: A 1.94, S 2.48, L 1.34, E 2.36, C 2.69, D 2.09, T 1.67, M 1.85, F 3.87, K 1.53, Y 1.44, H 1.83, G 1.7, W 1.86, I 2.17, P 2.33, Q 2.3, R 1.46, N 2.33
D12: N 1.82, W 3.13, I 1.34, C 3.28, S 2.07, G 1.45, R 3.65, H 2.38, Q 2.07, Y 1, T 2.21, K 1.31, V 2.65, E 2.21, P 1.95, M 2.69
N2: M 2.04, S 1.96, R 1.39, G 1.87, W 2.14, H 2.79, E 1.69, V 1.71, I 2.85, A 1.57, L 2.23, Y 1.68, C 2.13, P 3.02, D 1.78, T 1.9, K 1.36, F 2.6
H19: S 4.55, C 2.22, N 4.44, Y 3.48, L 2.08, K 2.95, A 2.75, F 1.33, V 3.51, Q 2.88, D 5, P 4.66, I 2.03, M 2.39, E 4.9
F3: E 2.33, Q 2.5, T 2.69, L 1.84, M 2.2, R 2.87, N 2.78, I 2.77, V 2.18, S 1.91, P 2.15, K 2.7, D 3.01, Y 1.61, H 3.1, A 2.51, C 4.67
S17: P 1.43, K 1.82, F 2.65, R 1.7, L 2.06, V 2.42, N 1.91, D 1.8, M 1.29, E 2.91, I 1.12, W 4.29, G 2.73, Q 1.68, Y 2.27, H 2.17, T 2.5, A 2.37
S10: R 2.21, Y 2.62, C 3.07, K 1.5, D 2.95, H 1.95, P 1.91, Q 1.81, T 1.91, L 1.38, E 2.57, N 2.09, I 1.34, F 1.43, A 2.85, G 2.19, V 1.87
S1: P 2.35, Q 1.92, W 2.31, H 2.44, N 2.03, Y 1.23, V 1.78, T 2.73, I 2.56, C 1.57, A 2.11, G 1.39, R 2.66, K 1.69, M 1.31, D 3.04, F 3.46
Q14: S 1.94, A 2.04, M 1.32, N 2.05, K 2.35, T 2.12, Y 1.72, C 2.21, H 1.6, I 1.55, F 1.99, P 2.34, R 2.01, L 1.65, D 2.33
E9: G 1.54, S 1.45, F 3.74, N 1.95, T 2.17, H 2.1, M 3.34, K 1, C 2.73, Q 1.47, A 2.02, P 2.26, D 2.21, R 1.89
H4: T 1.43, F 1.49, G 2.5, D 2.63, N 2.09, K 1.94, C 2.78, V 1.03, Y 2.37, I 2.12, P 2.57, R 1.6, S 2.16, E 3.18, Q 1.52, A 1.98, M 1.59
